Columns and labels:
[1] = target: cyno PD-1 expressed on cells (cynomolgus monkey) (UniProt B0LAJ3); experiment: flow cytometry on CHO cells expressing cyno PD-1; negative control; fit value of a flat curve; no unit in the table
[2] = target: human PD-1 expressed on the cell surface (human) (UniProt Q15116); experiment: flow cytometry on CHO cells expressing human PD-1; negative control; fit value of a flat curve; no unit in the table
[3] = target: human PD-1 expressed on the cell surface (human) (UniProt Q15116); experiment: cell-based or functional assay

UniProt Q15116, sequence (Q15116 25-198 limits assumed): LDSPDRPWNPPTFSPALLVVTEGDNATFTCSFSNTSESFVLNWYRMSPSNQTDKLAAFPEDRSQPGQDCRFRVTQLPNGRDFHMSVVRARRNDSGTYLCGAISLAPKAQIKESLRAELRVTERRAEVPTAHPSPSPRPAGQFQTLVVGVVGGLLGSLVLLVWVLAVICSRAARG
UniProt B0LAJ3, sequence (B0LAJ3 entry or part of it limits assumed): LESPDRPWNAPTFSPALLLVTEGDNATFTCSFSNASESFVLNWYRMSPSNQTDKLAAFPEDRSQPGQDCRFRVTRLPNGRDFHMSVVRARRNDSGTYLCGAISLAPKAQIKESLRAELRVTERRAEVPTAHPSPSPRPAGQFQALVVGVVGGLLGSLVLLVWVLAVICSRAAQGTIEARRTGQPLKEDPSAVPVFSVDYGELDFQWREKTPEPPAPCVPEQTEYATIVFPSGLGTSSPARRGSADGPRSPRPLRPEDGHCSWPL

huIgG1 Fc showed a LogEC50 [1] of -6.89 and a LogEC50 [2] of -7.75.
In the case of human IgG Fc fragment, the IL-17 and IFN-γ levels, human whole blood assay (EC50) [3] is reported as over 100 nM.

Reference: patent US20210163595A1
